Measured values from patent US12723105.

What was measured:
CD47 [1] = biological target: CD47 (UniProt Q08722); assay: competitive ELISA vs SIRPα
CD47 [2] = biological target: CD47 (UniProt Q08722); assay: flow cytometry, CD47-overexpressing cells

B6H12
IC50 (CD47 [1]): 0.499 nM
EC50 (CD47 [2]): 5.59 nM
